Laboratory results taken from patent US20240218065A1 (SHENGHE CHINA BIOPHARMACEUTICAL, published 2024).
Read-outs that look alike come from different tables or passages of the source.

T1: Human-NKP30-His (Kactus, cat: NKP-HM430) (human, UniProt O14931 19-138, limits assumed)
T1 construct: also called NKP30 protein; NKP30-his protein; not shown: His tag
T1 sequence (looked up): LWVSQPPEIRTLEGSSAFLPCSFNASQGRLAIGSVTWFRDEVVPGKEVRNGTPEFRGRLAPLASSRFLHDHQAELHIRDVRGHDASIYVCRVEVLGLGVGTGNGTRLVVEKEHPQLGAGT


How the values were obtained:
[1] = target: T1, Human-NKP30-His (Kactus, cat: NKP-HM430); assay: ELISA: Human-NKP30-His coated, antibody titrated 3-fold from 10 µg/mL, HRP goat anti-human IgG-Fc, OD450-OD570
Description: (§1) Human-NKP30-His (Kactus, cat: NKP-HM430) was diluted to […] with PBS buffer at pH 7.4, added into the 96-well ELISA plate at 100 μL per well, coated overnight at 4° C., and blocked with 1% BSA blocking solution for 1 hour. The plate was washed 3 times with PBST, and the constructed antibodies were diluted to 10 μg/mL with 0.5% BSA sample diluent as the starting concentration, and then diluted by 3-fold gradient (11 gradients in total). A negative control (blank well and IgG1 isotype control) and a positive control were set, and the positive control was a NKP30 humanized antibody (sequence shown in SEQ ID No. 28), and incubated at 37° C. for 1 h at 100 μL per well. The plate was washed 3 times with PBST, and then HRP-labelled goat anti-human IgG-Fc was diluted with the sample diluent at 1:20000. 100 μL was added into each well, and incubated at room temperature for 1 hour. The plate was washed 4 times with PBST, and 100 μL of TMB substrate was added into each well, and incubated at room temperature without light for 10 minutes. 100 μL of 1 M HCl solution was added into each well to terminate the color development reaction. The absorbance value of each well in the 96-well plate was determined by selecting the wavelength of 450 nm and the reference wavelength of 570 nm on a multifunctional enzyme marker, and the absorbance value (OD)=OD₄₅₀ₙₘ−OD₅₇₀ₙₘ. The logarithm of the concentration of the constructed antibody was taken as the abscissa, and the measured absorbance value of each well was taken as the ordinate, and the Sigmoidaldose-response (Variable Slope) method (GraphPad Prism software, GraphPad Software, San Diego, California) was selected for nonlinear regression to obtain the binding curve of the target antibody to NKP30.

[2] = target: T2, Human-GPC3-His (human, UniProt P51654 25-559, limits assumed); assay: ELISA: Human-GPC3-His coated at 0.5 µg/mL, antibody titrated 3-fold from 10 µg/mL, HRP goat anti-human IgG-Fc, OD450-OD570
T2 construct: Coated on the ELISA plate; also called GPC-3 protein; GPC3 protein; not shown: His tag
Description: (§2) Human-GPC3-His was diluted to 0.5 μg/mL with PBS buffer at pH 7.4, added into the 96-well ELISA plate at 100 μL per well, coated overnight at 4° C., and blocked with 1% BSA blocking solution for 1 hour. The plate was washed 3 times with PBST, and the constructed antibody was diluted to 10 μg/mL with 0.5% BSA sample diluent as the starting concentration, and then diluted by 3-fold gradient (11 gradients in total) and incubated at 37° C. for 1 h at 100 μL per well. The plate was washed 3 times with PBST, and then HRP-labelled goat anti-human IgG-Fc was diluted with the sample diluent at 1:20000. 100 μL was added into each well, and incubated at room temperature for 1 hour. A negative control (blank well and IgG1 isotype control) and a positive control were set, and the positive control was a GPC-3 and CD3 bispecial antibody from the literature Hs, A, et al. “Engineering a bispecific antibody with a common light chain: Identification and optimization of an anti-CD3 epsilon and anti-GPC3 bispecific antibody, ERY974.” Methods 154 (2019): 10-20. (The GPC-3 and CD3 bispecial antibody sequence consists of SEQ ID No. 22, SEQ ID No. 23, and SEQ ID No. 24). The plate was washed 4 times with PBST, and 100 μL of TMB substrate was added into each well, and incubated at room temperature without light for 10 minutes. 100 μL of 1 M HCl solution was added into each well to terminate the color development reaction. The absorbance value of each well in the 96-well plate was determined by selecting the wavelength of 450 nm and the reference wavelength of 570 nm on a multifunctional enzyme marker, and the absorbance value (OD)=OD₄₅₀ₙₘ−OD₅₇₀ₙₘ. The logarithm of the concentration of the constructed antibody was taken as the abscissa, and the measured absorbance value of each well was taken as the ordinate, and the Sigmoidaldose-response (Variable Slope) method (GraphPad Prism software, GraphPad Software, San Diego, California) was selected for nonlinear regression to obtain the binding curve of the target antibody to the GPC-3 protein.

[3] = target: T2, Human-GPC3-His; assay: as above; remark: listed apart in the source
Description: as §2

[4] = target: T1, Human-NKP30-His (Kactus, cat: NKP-HM430); assay: ELISA: Human-NKP30-His coated, antibody titrated 3-fold from 10 µg/mL, HRP goat anti-human IgG-Fc, OD450-OD570; remark: listed apart in the source
Description: as §1

T2 sequence (P51654 25-559 limits assumed): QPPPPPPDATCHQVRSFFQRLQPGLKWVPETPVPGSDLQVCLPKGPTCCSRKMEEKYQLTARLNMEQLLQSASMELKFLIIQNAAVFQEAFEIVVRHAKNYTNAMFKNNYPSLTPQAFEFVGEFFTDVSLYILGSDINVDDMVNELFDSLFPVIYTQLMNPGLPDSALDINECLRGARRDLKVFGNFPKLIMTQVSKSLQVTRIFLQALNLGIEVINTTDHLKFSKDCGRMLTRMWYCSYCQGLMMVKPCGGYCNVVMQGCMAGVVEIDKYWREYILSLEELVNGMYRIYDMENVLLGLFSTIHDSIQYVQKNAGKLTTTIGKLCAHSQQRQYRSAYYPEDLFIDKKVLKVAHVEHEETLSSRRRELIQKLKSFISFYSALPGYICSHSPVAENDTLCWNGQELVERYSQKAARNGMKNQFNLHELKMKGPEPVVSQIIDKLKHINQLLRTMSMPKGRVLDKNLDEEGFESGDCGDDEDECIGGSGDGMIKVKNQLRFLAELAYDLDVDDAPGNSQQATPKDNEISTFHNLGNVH

| Binder | EC50 (read off the curve) [1] [µg/mL] | EC50 (read off the curve) [2] [µg/mL] | EC50 (read off the curve) [3] [µg/mL] | EC50 (read off the curve) [4] [µg/mL] |
| --- | --- | --- | --- | --- |
| GN15-C (bispecific antibody, human IgG1, kappa, Trifunctional antibody against GPC-3 and NKP30 with IL-15 and IL-15Rα sushi between CH1 and CH2; also called constructed antibody GN15-C; multifunctional antibody) light: DVVMTQSPLSLPVTPGEPASISCRSSQSLVHSNRNTYLHWYLQKPGQSPQLLIYKVSNRFSGVPDRFSGSGSGTDFTLKISRVEAEDVGVYYCSQNTHVPPTFGQGTKLEIKRTVAAPSVFIFPPSDEQLKSGTASVVCLLNNFYPREAKVQWKVDNALQSGNSQESVTEQDSKDSTYSLSSTLTLSKADYEKHKVYACEVTHQGLSSPVTKSFNRGECGGGGSGGGGSGGGGSGGGGSEVQLVESGGGLVQPGGSLRLSCAASGITFSRSVMGWFRQAPGKLRELVAGITSDDNTDYADSVKGRFTISRDNSKNTLYLQMNSLRAEDTAVYYCNILPDSRLGWGQGTLVTVSS heavy 1: not shown heavy 2: QVQLVQSGAEVKKPGASVKVSCKASGYTFTDYEMHWVRQAPGQGLEWMGALDPKTGDTAYSQKFKGRVTLTADKSTSTAYMELSSLTSEDTAVYYCTRFYSYTYWGQGTLVTVSSASTKGPSVFPLAPSSKSTSGGTAALGCLVKDYFPEPVTVSWNSGALTSGVHTFPAVLQSSGLYSLSSVVTVPSSSLGTQTYICNVNHKPSNTKVDKKVEPKSCDKTHTCPPCPGGGGSGGGGSPALLLLLLLRPPATRGITCPPPMSVEHADIWVKSYSLYSRERYICNSGFKRKAGTSSLTECVLNKATNVAHWTTPSLKCIRDPALVHQRPAPPSTVTTAGVTPQPESLSPSGKEGGGGSGGGGSAPELLGGPSVFLFPPKPKDTLMISRTPEVTCVVVDVSHEDPEVKFNWYVDGVEVHNAKTKPREEQYNSTYRVVSVLTVLHQDWLNGKEYKCKVSNKALPAPIEKTISKAKGQPREPQVYTLPPSRDELTKNQVSLTCLVKGFYPSDIAVEWESNGQPENNYKTTPPVLDSDGSFFLASKLTVDKSRWQQGNVFSCSVMHEALHNHYTQKSLSLSPGK | ~0.05 | ~0.03 | – | – |
| GN15-D (bispecific antibody, human IgG1, kappa, Trifunctional antibody against GPC-3 and NKP30 with IL-15 and IL-15Rα sushi between CH1 and CH2; also called constructed antibody GN15-D; multifunctional antibody) light: DVVMTQSPLSLPVTPGEPASISCRSSQSLVHSNRNTYLHWYLQKPGQSPQLLIYKVSNRFSGVPDRFSGSGSGTDFTLKISRVEAEDVGVYYCSQNTHVPPTFGQGTKLEIKRTVAAPSVFIFPPSDEQLKSGTASVVCLLNNFYPREAKVQWKVDNALQSGNSQESVTEQDSKDSTYSLSSTLTLSKADYEKHKVYACEVTHQGLSSPVTKSFNRGEC heavy 1: not shown heavy 2: QVQLVQSGAEVKKPGASVKVSCKASGYTFTDYEMHWVRQAPGQGLEWMGALDPKTGDTAYSQKFKGRVTLTADKSTSTAYMELSSLTSEDTAVYYCTRFYSYTYWGQGTLVTVSSASTKGPSVFPLAPSSKSTSGGTAALGCLVKDYFPEPVTVSWNSGALTSGVHTFPAVLQSSGLYSLSSVVTVPSSSLGTQTYICNVNHKPSNTKVDKKVEPKSCDKTHTCPPCPGGGGSGGGGSPALLLLLLLRPPATRGITCPPPMSVEHADIWVKSYSLYSRERYICNSGFKRKAGTSSLTECVLNKATNVAHWTTPSLKCIRDPALVHQRPAPPSTVTTAGVTPQPESLSPSGKEGGGGSGGGGSAPELLGGPSVFLFPPKPKDTLMISRTPEVTCVVVDVSHEDPEVKFNWYVDGVEVHNAKTKPREEQYNSTYRVVSVLTVLHQDWLNGKEYKCKVSNKALPAPIEKTISKAKGQPREPQVYTLPPSRDELTKNQVSLTCLVKGFYPSDIAVEWESNGQPENNYKTTPPVLDSDGSFFLASKLTVDKSRWQQGNVFSCSVMHEALHNHYTQKSLSLSPGKGGGGSGGGGSGGGGSGGGGSEVQLVESGGGLVQPGGSLRLSCAASGITFSRSVMGWFRQAPGKLRELVAGITSDDNTDYADSVKGRFTISRDNSKNTLYLQMNSLRAEDTAVYYCNILPDSRLGWGQGTLVTVSS | ~0.03 | – | ~0.04 | – |
| GN15-E (bispecific antibody, human IgG1, kappa, Trifunctional antibody against GPC-3 and NKP30 with IL-15 and IL-15Rα sushi between CH1 and CH2; also called constructed antibody GN15-E; multifunctional antibody) light 1: EVQLVESGGGLVQPGGSLRLSCAASGITFSRSVMGWFRQAPGKLRELVAGITSDDNTDYADSVKGRFTISRDNSKNTLYLQMNSLRAEDTAVYYCNILPDSRLGWGQGTLVTVSSGGGGSGGGGSGGGGSQVQLVQSGAEVKKPGASVKVSCKASGYTFTDYEMHWVRQAPGQGLEWMGALDPKTGDTAYSQKFKGRVTLTADKSTSTAYMELSSLTSEDTAVYYCTRFYSYTYWGQGTLVTVSSRTVAAPSVFIFPPSDEQLKSGTASVVCLLNNFYPREAKVQWKVDNALQSGNSQESVTEQDSKDSTYSLSSTLTLSKADYEKHKVYACEVTHQGLSSPVTKSFNRGEC heavy 1: not shown heavy 2: QVQLVQSGAEVKKPGASVKVSCKASGYTFTDYEMHWVRQAPGQGLEWMGALDPKTGDTAYSQKFKGRVTLTADKSTSTAYMELSSLTSEDTAVYYCTRFYSYTYWGQGTLVTVSSASTKGPSVFPLAPSSKSTSGGTAALGCLVKDYFPEPVTVSWNSGALTSGVHTFPAVLQSSGLYSLSSVVTVPSSSLGTQTYICNVNHKPSNTKVDKKVEPKSCDKTHTCPPCPGGGGSGGGGSPALLLLLLLRPPATRGITCPPPMSVEHADIWVKSYSLYSRERYICNSGFKRKAGTSSLTECVLNKATNVAHWTTPSLKCIRDPALVHQRPAPPSTVTTAGVTPQPESLSPSGKEGGGGSGGGGSAPELLGGPSVFLFPPKPKDTLMISRTPEVTCVVVDVSHEDPEVKFNWYVDGVEVHNAKTKPREEQYNSTYRVVSVLTVLHQDWLNGKEYKCKVSNKALPAPIEKTISKAKGQPREPQVYTLPPSRDELTKNQVSLTCLVKGFYPSDIAVEWESNGQPENNYKTTPPVLDSDGSFFLASKLTVDKSRWQQGNVFSCSVMHEALHNHYTQKSLSLSPGK light 2: DVVMTQSPLSLPVTPGEPASISCRSSQSLVHSNRNTYLHWYLQKPGQSPQLLIYKVSNRFSGVPDRFSGSGSGTDFTLKISRVEAEDVGVYYCSQNTHVPPTFGQGTKLEIKRTVAAPSVFIFPPSDEQLKSGTASVVCLLNNFYPREAKVQWKVDNALQSGNSQESVTEQDSKDSTYSLSSTLTLSKADYEKHKVYACEVTHQGLSSPVTKSFNRGEC | – | – | ~0.06 | ~0.04 |
| GN15-B (bispecific antibody, human IgG1, kappa, Trifunctional antibody against GPC-3 and NKP30 with IL-15 and IL-15Rα sushi between CH1 and CH2; also called constructed antibody GN15-B; multifunctional antibody) light: DVVMTQSPLSLPVTPGEPASISCRSSQSLVHSNRNTYLHWYLQKPGQSPQLLIYKVSNRFSGVPDRFSGSGSGTDFTLKISRVEAEDVGVYYCSQNTHVPPTFGQGTKLEIKRTVAAPSVFIFPPSDEQLKSGTASVVCLLNNFYPREAKVQWKVDNALQSGNSQESVTEQDSKDSTYSLSSTLTLSKADYEKHKVYACEVTHQGLSSPVTKSFNRGEC heavy 1: not shown heavy 2: EVQLVESGGGLVQPGGSLRLSCAASGITFSRSVMGWFRQAPGKLRELVAGITSDDNTDYADSVKGRFTISRDNSKNTLYLQMNSLRAEDTAVYYCNILPDSRLGWGQGTLVTVSSGGGGSGGGGSGGGGSQVQLVQSGAEVKKPGASVKVSCKASGYTFTDYEMHWVRQAPGQGLEWMGALDPKTGDTAYSQKFKGRVTLTADKSTSTAYMELSSLTSEDTAVYYCTRFYSYTYWGQGTLVTVSSASTKGPSVFPLAPSSKSTSGGTAALGCLVKDYFPEPVTVSWNSGALTSGVHTFPAVLQSSGLYSLSSVVTVPSSSLGTQTYICNVNHKPSNTKVDKKVEPKSCDKTHTCPPCPGGGGSGGGGSPALLLLLLLRPPATRGITCPPPMSVEHADIWVKSYSLYSRERYICNSGFKRKAGTSSLTECVLNKATNVAHWTTPSLKCIRDPALVHQRPAPPSTVTTAGVTPQPESLSPSGKEGGGGSGGGGSAPELLGGPSVFLFPPKPKDTLMISRTPEVTCVVVDVSHEDPEVKFNWYVDGVEVHNAKTKPREEQYNSTYRVVSVLTVLHQDWLNGKEYKCKVSNKALPAPIEKTISKAKGQPREPQVYTLPPSRDELTKNQVSLTCLVKGFYPSDIAVEWESNGQPENNYKTTPPVLDSDGSFFLASKLTVDKSRWQQGNVFSCSVMHEALHNHYTQKSLSLSPGK | ~0.03 | ~0.03 | – | – |
